Test results as given in patent US20060003399A1, “High throughput actin polymerization assay” (Cytokinetics, Inc., priority 2004, published 2006).
Entries after “also recorded” stand apart in the source; their conditions may differ.

How the values were obtained:
[1] = target: T1, full length human N-WASP (Homo sapiens, UniProt O00401); assay: Pyrene-actin polymerization assay: activation of full length N-WASP by upstream regulators; type: biochemical; conditions: for activation of FL-N-WASP (in words): Arp2/3 4.0 nM, actin 3.5 μM; for Barbed ends % of max.** (N-WASP): after subtracting baseline (WASP without activators); for Barbed ends, nM* (N-WASP): total concentration of Arp2/3 complex in the assay is 4.2 nM; for EC50: activation of N-WASP
T1 construct: Full length human WASP and N-WASP were TAP-tagged; Myc (N); made in house; host or cells: human 293 cells (Freestyle 293-F), transient transfection; insert amplified from HeLa total RNA
T1 sequence (O00401 whole entry Y76H/A201G/F223S/S242L/D248E/S252L/N296S/A333E): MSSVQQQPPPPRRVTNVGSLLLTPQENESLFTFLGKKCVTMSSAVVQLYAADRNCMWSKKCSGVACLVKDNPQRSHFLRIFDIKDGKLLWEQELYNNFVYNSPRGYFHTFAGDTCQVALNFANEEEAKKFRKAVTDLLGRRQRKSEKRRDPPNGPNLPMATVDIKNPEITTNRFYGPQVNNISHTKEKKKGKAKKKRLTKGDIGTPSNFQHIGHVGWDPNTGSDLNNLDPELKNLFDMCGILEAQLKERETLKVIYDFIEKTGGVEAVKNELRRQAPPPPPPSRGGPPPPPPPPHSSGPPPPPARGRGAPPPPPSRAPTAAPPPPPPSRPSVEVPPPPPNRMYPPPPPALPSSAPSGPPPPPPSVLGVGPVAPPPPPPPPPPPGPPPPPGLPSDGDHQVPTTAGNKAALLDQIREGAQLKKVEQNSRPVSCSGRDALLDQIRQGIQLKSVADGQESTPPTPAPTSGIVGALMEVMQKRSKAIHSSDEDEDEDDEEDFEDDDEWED
Experimental: (§1) Samples containing candidate agents (individually or as mixtures) are placed into wells on a multi-well plate. Mix 1 is added to each of the wells and mixed with the candidate agent. A sample of Mix 2 is then introduced into each well and the resulting mixture thoroughly mixed. Typically, Mix 1 and Mix 2 are mixed in 1:1 ratio (e.g., 50 μl each of Mix 1 and Mix 2).
(§2) Actin polymerization is measured as a function of time by exciting pyrene at 365 nm and by detecting an increase in fluorescence emission at 407 nm, or by exciting acrylodan at 405 nm and by detecting an increase in fluorescence emission at 460 nm. The change in fluorescence over time is utilized to determine a fluorescence parameter (e.g., maximal velocity, time to half maximal fluorescence intensity, or area under the curve of a plot of fluorescence versus time; see e.g., FIGS. 5A-5F).
(§3) Full length human WASP and N-WASP were TAP-tagged (Rigaut, et al. (1999) Nat. Biotechnology 17:1030, which is incorporated herein by reference in its entirety for all purposes) at the C-terminus (see, also Examples 2 and 3). The recombinant WASP and N-WASP were expressed in human 293 cells and then purified using a TAP-tag protocol as described in Example 6.
(§4) Arp2/3 was purified as described in Example 1.
Arp2/3 and actin concentrations were as described for the third experiment.
Another set of experiments similar to the fifth set were conducted using FL-N-WASP.

[2] = target: T2, full length human WASP (Homo sapiens, UniProt P42768); assay: Pyrene-actin polymerization assay: activation of full length WASP by upstream regulators; type: biochemical; conditions: for Barbed ends % of max.** (WASP): after subtracting baseline (WASP without activators); for Barbed ends, nM* (WASP): total concentration of Arp2/3 complex in the assay is 4.2 nM; for EC50: activation of WASP; for activation of FL-WASP (in words): Arp2/3 4.0 nM, actin 3.5 μM; for acceleration of actin polymerization by the activator: FL-WASP
T2 construct: Full length human WASP and N-WASP were TAP-tagged; Myc (N); made in house; host or cells: human 293 cells (Freestyle 293-F), transient transfection
T2 sequence (P42768 1-502): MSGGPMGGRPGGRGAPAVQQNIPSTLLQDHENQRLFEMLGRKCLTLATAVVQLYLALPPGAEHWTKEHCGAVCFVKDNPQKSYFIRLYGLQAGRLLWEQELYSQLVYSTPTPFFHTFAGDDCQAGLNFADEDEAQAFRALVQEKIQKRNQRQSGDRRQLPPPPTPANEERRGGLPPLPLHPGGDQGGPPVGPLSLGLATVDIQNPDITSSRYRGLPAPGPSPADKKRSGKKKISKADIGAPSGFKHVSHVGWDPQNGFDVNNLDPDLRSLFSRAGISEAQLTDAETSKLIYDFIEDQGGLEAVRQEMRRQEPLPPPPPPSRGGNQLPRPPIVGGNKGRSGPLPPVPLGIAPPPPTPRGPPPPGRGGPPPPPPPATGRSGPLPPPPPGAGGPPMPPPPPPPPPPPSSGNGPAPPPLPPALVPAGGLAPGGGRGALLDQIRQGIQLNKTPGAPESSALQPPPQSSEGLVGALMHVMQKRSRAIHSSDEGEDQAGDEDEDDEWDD
Experimental: as §1, §2, §3
Arp2/3 was purified as described in Example 1. […]
The effect of PIP2 on the ability of upstream regulators to regulate FL-WASP was evaluated in a fifth set of experiments. The results are depicted in graphical format in FIG. 11.

[3] = target: T3, Arp2/3 complex; assay: Actin polymerization assay comparing FL-WASP/N-WASP and truncated forms of WASP; type: biochemical, human
T3 construct: from tissue
Experimental: 1. A cellular extract containing Arp2/3 complex was prepared from an Arp2/3 source such as human platelets (see, e.g., U.S. Provisional Application No. 60/578,969, filed Jun. 10, 2004; Welch and Mitchison (Meth. Enzymology 298:52-61,1988); and Higgs, H. N. et al. (Biochemistry 38:15212-15222, 1999), all of which are incorporated herein by reference in their entirety for all purposes).
as §1, §2, §4
In a second set of experiments, the ability of various truncated forms of WASP were compared to the activity of the full-length protein. […] FL-WASP, 105 WASP and the VCA (see Example 2) domain were tested. The results of these trials were plotted to obtain EC50 values. The results are provided in FIG. 8 and in the chart below.

[4] = Solubility of purified full-length WASP / N-WASP; type: physicochemical; conditions: purified TAP-tag protein from 293 cells
[5] = target: Arp2/3; assay: Activities of WASP/N-WASP proteins (Table 4); type: biochemical
From the text: The term “variant” or “analogue” generally refers to proteins that are functional equivalents to a native sequence that have similar amino acid sequences and retain, to some extent, one of the activities of the corresponding native protein. Variants/analogues include fragments that retain one or more activities of the corresponding native protein. Examples of WASP and N-WASP activity include, but are not limited to, capacity to: 1) bind Arp2/3 and actin; 2) activate the actin nucleation activity of Arp2/3 (descriptions of assays to detect nucleation activity are provided below); 3) bind an upstream regulator; 4) be regulated by one or more upstream regulators, thereby rendering the WASP or N-WASP protein able to activate the nucleation activity of Arp2/3; and 5) bind downstream regulators initiating signal transduction cascades. Some of the WASP and N-WASP proteins that are provided are able to recapitulate the full activity of WASP or N-WASP, which means that these proteins have all five of the activities just listed. […]
A third class of NPF proteins that can be utilized in some assays include WASP, N-WASP and SCAR proteins that include the WH1 domain but in which the PolyPro region is (e.g., deleted). A fourth class of NPF proteins that can be utilized in some assays are WASP, N-WASP and SCAR deletion mutants in which the PolyPro region is maintained but an N-terminal region (e.g., WH1 domain) is at least partially removed. Some proteins in this class are ones that include the B, CRIB/GBD (WASP and N-WASP), PolyPro and VCA domains, but in which some or all of the WH1 has been removed. One specific example is 98N-WASP, which includes amino acids 98-501 of SEQ ID NO:4. Another specific example is the 105WASP protein, which includes amino acids 105-501 of SEQ ID NO:2 (see FIG. 4B).
As indicated in this table, specific examples of fusion proteins that can be utilized include those that include a segment that encodes full-length WASP or N-WASP, including: Myc-WASP-TAP (SEQ ID NO:14); and Myc-N-WASP-TAP (SEQ ID NO: 16). Examples of fusion proteins that include a WASP or N-WASP deletion mutant domain include: GST-105WASP (SEQ ID NO:18); Myc-105WASP-TAP (SEQ ID NO:20); GST-tev-98N-WASP (SEQ ID NO:22); and Myc-98N-WASP-TAP (SEQ ID NO:24). The TAP tag in these particular fusion proteins has the general structure CBP-tev-ProtA (SEQ ID NO:36). Fusion proteins such as those listed in Table 4 can in some instances be utilized directly, or after one or both of the C- and N-terminal tags are removed. For example, the fusion proteins listed in Table 4 as having a TAP tag can be used once the TAP tag has been cleaved off and/or after the C-terminal tag has been removed.

Substance: phosphatidylinositol-4,5-bisphosphate [PIP2, reference compound]
- effect of PIP2 on Nck stimulated activation of N-WASP ([1]; Nck present, FIG. 12): inhibited; also recorded: inhibitory effect
- effect of PIP2 on N-WASP activation by Rac1 or Cdc42 ([1]; small GTPases present, FIG. 12): marked synergistic effect; also recorded: synergistically; also recorded: marked synergestic effect
- effect of PIP2 on FL-WASP ([2]; in the absence of small GTPases or Nck, FIG. 11): no effect; also recorded: minimal, if any, effect
- effect of PIP2 on WASP stimulated actin polymerization ([2]; in the presence of small GTPases or Nck, FIG. 11): strong inhibitory effect

Substance: FL-WASP: full length human WASP (SEQ ID NO:2), nucleation promoting factor
- potency as Arp2/3 complex activator compared with truncated derivatives (in words) [3]: more potent Arp2/3 complex activator than certain truncated derivatives
- concentration that stimulated production of maximal concentration of barbed ends ([3]; 500 nM Cdc42, 2.5 nm Arp2/3 complex, 3.5 μM actin): 3 nM
- activity of FL-WASP relative to 105 WASP ([3]; 500 nM Cdc42, 2.5 nm Arp2/3 complex, 3.5 μM actin, FIG. 8): approximately 20 times
- stimulation of actin polymerization by the protein alone (in words) ([3]; without activators, FIG. 7): weakly stimulate actin polymerization
- solubility (in words) [4]: completely soluble
- Activate Arp2/3? [5]: Yes
- Regulated By Which Upstream Regulators? [5]: Cdc42, PIP2, Nck and Rac1

Substance: Nck2: upstream regulator, GST-tagged (SEQ ID NO:46)
- activation of FL-N-WASP (in words) ([1]; FIG. 10): can stimulate production of maximal concentration of barbed ends
- relative potency as N-WASP activator (in words) ([1]; FIG. 10, Rac1 vs Cdc42 in the absence of PIP2 vesicles): significantly better activator of N-WASP than WASP; also recorded: most powerful activators
- dose dependence of N-WASP activation (in words) ([1]; FIG. 10, inhibition at higher concentrations): bell shaped dose dependence curve; also recorded: inhibited
- Barbed ends % of max.** (N-WASP) ([1]; N-WASP): 78 % of max.
- Barbed ends, nM* (N-WASP) ([1]; N-WASP): 3.5 nM
- EC50 [1]: 7 nM
- relative potency as WASP activator (in words) ([2]; FIG. 9): most powerful activators
- dose dependence of WASP activation / barbed end concentration (in words) ([2]; FIG. 9, inhibition at higher concentrations): bell shaped dependence; also recorded: inhibited
- Barbed ends % of max.** (WASP) [2]: 50 % of max.
- Barbed ends, nM* (WASP) [2]: 2.6 nM
- EC50 [2]: 12 nM

Substance: N-WASP VCA Domain: VCA domain of N-WASP (SEQ ID NO:8)
- Activate Arp2/3? [5]: Yes
- Regulated By Which Upstream Regulators? [5]: None

Substance: RhoC: GTPase, GST-tev-RhoC (SEQ ID NO:28)
- activation of FL-N-WASP (in words) ([1]; FIG. 10): could not activate
- activation of FL-WASP (in words) ([2]; FIG. 9): could not activate

Substance: RhoA: GTPase, GST-tev-RhoA (SEQ ID NO:30)
- activation of FL-N-WASP (in words) ([1]; FIG. 10): could not activate
- activation of FL-WASP (in words) ([2]; FIG. 9): could not activate

Substance: Cdc42: Rho-family GTPase upstream regulator, GST-tagged (SEQ ID NO:26)
- acceleration of actin polymerization by the activator ([1]; FL-N-WASP, FIG. 7 legend): 13 times
- acceleration of actin polymerization by the activator ([1]; N-WASP, FIG. 7): 13 fold
- Barbed ends % of max.** (N-WASP) ([1]; N-WASP): 9 % of max.
- Barbed ends, nM* (N-WASP) ([1]; N-WASP): 1.3 nM
- EC50 [1]: 287 nM
- activation of FL-WASP (in words) ([2]; FIG. 9): fully activates FL-WASP; also recorded: can fully activate FL-WASP
- relative potency as WASP activator (in words) ([2]; FIG. 9): more effective on WASP-stimulated actin nucleation by Arp2/3 complex than on N-WASP-stimulated actin nucleation
- acceleration of actin polymerization by the activator ([2]; FIG. 7): 13 fold
- acceleration of actin polymerization by the activator ([2]; FIG. 7 legend): 13 times
- Barbed ends % of max.** (WASP) [2]: 87 % of max.
- Barbed ends, nM* (WASP) [2]: 3.8 nM
- EC50 [2]: 16 nM

Substance: Myc-N-WASP-TAP: fusion protein of full-length N-WASP (SEQ ID NO:16)
- Activate Arp2/3? [5]: Yes
- Regulated By Which Upstream Regulators? [5]: Cdc42, PIP2, Nck and Rac1

Substance: Myc-WASP-TAP: fusion protein of full-length WASP (SEQ ID NO:14)
- Activate Arp2/3? [5]: Yes
- Regulated By Which Upstream Regulators? [5]: Cdc42, PIP2, Nck and Rac1
